Results as given in patent US20220177587A1, “METHODS AND USES OF VARIANT CD80 FUSION PROTEINS AND RELATED CONSTRUCTS” (Alpine Immune Sciences, Inc., priority 2018, published 2022).
Changes are numbered by the printed parent chain. Names and notes keep the numbering of the source.

B1: V22A/E35D/M47I/Y87N (protein)
chain: VIHVTKEVKEVATLSCGHNVSAEELAQTRIYWQKDKKMVLTMMSGDINIWPEYKNRTIFDITNNLSIVILALRPSDEGTYECVVLKNEKDAFKREHLAEVTLSVKADFPTPSISDFETPTSNIRRIICSTSGGFPEPHLSWLENGEELNAINTTVSQDPETELYAVSSKLDFNMTTNHSFMCLIKYGHLRVNQTFNWNTTKQEHFPDN
modifications: CD80 v253 ECD
B2: V22D/E35D/M47L/L85Q (protein)
chain: B1 chain with A22D, I47L, L85Q, N87Y
modifications: CD80 v261 ECD
B3: T28Y/Q33H/E35D/D46V/M47I/A71G (protein)
chain: B1 chain with A22V, T28Y, Q33H, D46V, A71G, N87Y
modifications: CD80 v291 ECD
B4: V22L/Q27H/E35D/M47I/A71G (protein)
chain: B1 chain with A22L, Q27H, A71G, N87Y
modifications: CD80 v274 ECD
B5: E35D/M47I/Y87Q/K89E (protein, UniProt P33681 35-288, looked up, variant E35D M47I Y87Q K89E)
T-lymphocyte activation …: VIHVTKEVKEVATLSCGHNVSVEELAQTRIYWQKDKKMVLTMMSGDINIWPEYKNRTIFDITNNLSIVILALRPSDEGTYECVVLKQEEDAFKREHLAEVTLSVKADFPTPSISDFEIPTSNIRRIICSTSGGFPEPHLSWLENGEELNAINTTVSQDPETELYAVSSKLDFNMTTNHSFMCLIKYGHLRVNQTFNWNTTKQEHFPDNLLPSWAITLISVNGIFVICCLTYCFAPRCRERRRNERLRRESVRPV
B6: E35D/M47V/A71G (protein, UniProt P33681 35-288, looked up, variant E35D M47V A71G)
T-lymphocyte activation …: B5 T-lymphocyte activation … with I47V, A71G, Q87Y, E89K
B7: E35D/M38T/M43V/M47V/N48R/L85Q (protein, UniProt P33681 35-288, looked up, variant E35D M38T M43V M47V N48R L85Q)
T-lymphocyte activation …: B5 T-lymphocyte activation … with M38T, M43V, I47V, N48R, L85Q, Q87Y, E89K
modifications: Fc fusion
B8: E35D/M47L/A71G/L85Q (protein, UniProt P33681 35-288, looked up, variant E35D M47L A71G L85Q)
T-lymphocyte activation …: B5 T-lymphocyte activation … with I47L, A71G, L85Q, Q87Y, E89K
B9: H18Y/A26E/E35D/M47L/L85Q/D90G (protein, UniProt P33681 35-288, looked up, variant H18Y A26E E35D M47L L85Q D90G)
T-lymphocyte activation …: B5 T-lymphocyte activation … with H18Y, A26E, I47L, L85Q, Q87Y, E89K, D90G
B10: I30V/E35D/M47V/A71G/A91V (protein, UniProt P33681 35-288, looked up, variant I30V E35D M47V A71G A91V)
T-lymphocyte activation …: B5 T-lymphocyte activation … with I30V, I47V, A71G, Q87Y, E89K, A91V
B11: E35D/M43I/M47V/K89N (protein, UniProt P33681 35-288, looked up, variant E35D M43I M47V K89N)
T-lymphocyte activation …: B5 T-lymphocyte activation … with M43I, I47V, Q87Y, E89N
B12: E35D/M47V/A71G/E88D (protein, UniProt P33681 35-288, looked up, variant E35D M47V A71G E88D)
T-lymphocyte activation …: B5 T-lymphocyte activation … with I47V, A71G, Q87Y, E88D, E89K
B13: E35D/M38T/D46E/M47V/N48S (protein, UniProt P33681 35-288, looked up, variant E35D M38T D46E M47V N48S)
T-lymphocyte activation …: B5 T-lymphocyte activation … with M38T, D46E, I47V, N48S, Q87Y, E89K
B14: E35D/T41S/M43I/M47L/A71G (protein, UniProt P33681 35-288, looked up, variant E35D T41S M43I M47L A71G)
T-lymphocyte activation …: B5 T-lymphocyte activation … with T41S, M43I, I47L, A71G, Q87Y, E89K
B15: Q33R/E35D/M47V/N48K/L85M/F92L (protein, UniProt P33681 35-288, looked up, variant Q33R E35D M47V N48K L85M F92L)
T-lymphocyte activation …: B5 T-lymphocyte activation … with Q33R, I47V, N48K, L85M, Q87Y, E89K, F92L
modifications: Fc fusion
B16: E35D/L85Q/K93T/E95V/L97Q (protein, UniProt P33681 35-288, looked up, variant E35D L85Q K93T E95V L97Q)
T-lymphocyte activation …: B5 T-lymphocyte activation … with I47M, L85Q, Q87Y, E89K, K93T, E95V, L97Q
B17: E35D/A71G (protein, UniProt P33681 35-288, looked up, variant E35D A71G)
T-lymphocyte activation …: B5 T-lymphocyte activation … with I47M, A71G, Q87Y, E89K
B18: E35D/A71D/L72V/R73H/E81K (protein, UniProt P33681 35-288, looked up, variant E35D A71D L72V R73H E81K)
T-lymphocyte activation …: B5 T-lymphocyte activation … with I47M, A71D, L72V, R73H, E81K, Q87Y, E89K
B19: A26E/E35D/M47L/A71G (protein)
chain: VIHVTKEVKEVATLSCGHNVSVEELEQTRIYWQKDKKMVLTMMSGDLNIWPEYKNRTIFDITNNLSIVILGLRPSDEGTYECVVLKYEKDAFKREHLAEVTLSVKAD

The molecules below were run against T1, CD28 (Homo sapiens, UniProt P10747) (assay: Jurkat/IL2 + K562/OKT3/PD-L1 reporter assay). Conditions: Table E8; K562/OKT3/PD-L1 aAPC; 50 nM.
Assay type: cell-based
Parameters: host or cells: Jurkat cells expressing an IL-2-luciferase reporter

Row | Relative Luciferase Units (RLU), CD80-Fe Cone 50 nM [RLU] | Fold Increase over WT CD80-IgV-Fe | Molecule
1 | 1388 |  | B1
2 | 1142 |  | B2
3 | 580 | 2.8 | B3
4 | 1123 |  | B4
5 | 1581 |  | B5
6 | 1190 |  | B6
7 | 680 | 3.3 | B7
8 | 1256 |  | B8
9 | 1506 |  | B9
10 | 1503 |  | B10
11 | 1094 |  | B11
12 | 1216 |  | B12
13 | 1315 |  | B13
14 | 1535 |  | B14
15 | 215 |  | B15
16 | 315 | 1.5 | B16
17 | 1190 |  | B17
18 | 282 |  | B18
19 | 1748 |  | B19

What follows are molecules tested against huCTLA4 (Homo sapiens, UniProt P16410) (assay: Flow binding to CHO cells stably expressing CTLA4). Conditions: Table E4; 33.3 nM variant CD80 IgV-Fc; CHO cells stably expressing CTLA4.
Parameters: huCTLA4 and huPD-L1, full-length mammalian surface expression constructs were generated; expressed in transfected cells; host or cells: CHO cells, lentiviral transduction, sorted to >98% purity
Summary of the method: (§1)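 Binding EC50 and PE mean fluorescence intensity derived by flow cytometry using PE-labelled anti-human Fc secondary. Target cells were CTLA4- or PD-L1-transfected CHO lines and CD28-expressing Jurkat/IL2 reporter cells, stained with fusion proteins on ice for 45 min following BSA blocking.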

huCTLA4, sequence (P16410 36-223): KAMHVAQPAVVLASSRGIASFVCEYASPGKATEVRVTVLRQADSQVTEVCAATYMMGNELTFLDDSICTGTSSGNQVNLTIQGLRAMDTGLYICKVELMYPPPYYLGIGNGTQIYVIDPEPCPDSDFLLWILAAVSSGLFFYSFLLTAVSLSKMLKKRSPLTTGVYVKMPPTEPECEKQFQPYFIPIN

Row | CTLA4 MFI at 33.3 nM | Molecule
20 | 245711 | B1
21 | 151600 | B4
22 | 230588 | B9
23 | 204756 | B10
24 | 278391 | B11
25 | 209034 | B14
26 | 2680 | B15
27 | 184204 | B17

Each molecule was assayed against huPD-L1 (Homo sapiens, UniProt Q9NZQ7) (assay: Flow binding to CHO cells stably expressing PD-L1). Conditions: Table E4; 33.3 nM; CHO cells stably expressing PD-L1.
Parameters: huCTLA4 and huPD-L1, full-length mammalian surface expression constructs were generated; expressed in transfected cells; host or cells: CHO cells, lentiviral transduction, sorted to >98% purity
Summary of the method: as §1

huPD-L1, sequence (Q9NZQ7 19-290): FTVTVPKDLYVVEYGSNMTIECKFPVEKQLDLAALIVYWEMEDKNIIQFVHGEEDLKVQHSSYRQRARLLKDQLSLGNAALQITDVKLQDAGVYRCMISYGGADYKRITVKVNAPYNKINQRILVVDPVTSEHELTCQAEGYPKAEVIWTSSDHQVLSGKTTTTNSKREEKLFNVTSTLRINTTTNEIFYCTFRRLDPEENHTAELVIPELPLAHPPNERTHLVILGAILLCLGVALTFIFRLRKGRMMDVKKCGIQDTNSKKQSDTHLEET

Row | PD-L1 MFI at 33.3 nM | Molecule
28 | 29803 | B5
29 | 36216 | B6
30 | 19250 | B11
31 | 37146 | B12
32 | 34149 | B17

Each molecule was assayed against T1, CD28 (assay: Flow binding to Jurkat/IL2 reporter cells (CD28)). Conditions: Table E4; 33.3 nM; Jurkat cells (CD28).
Parameters: host or cells: Jurkat cells expressing an IL-2-luciferase reporter
Summary of the method: as §1

Row | CD28 MFI at 33.3 nM | Molecule
33 | 15299 | B1
34 | 542 | B2
35 | 7269 | B4
36 | 15452 | B5
37 | 6360 | B6
38 | 1436 | B8
39 | 3540 | B9
40 | 6237 | B12
41 | 2161 | B19

Same assay, conditions: Table E20; Jurkats (CD28); 33.3 nM

Row | CD28 MFI at 33.3 nM | Molecule
42 | 236 | B19

What follows are molecules tested against T1, CD28 (assay: Jurkat/IL2 + CHO/OKT3 +/- PD-L1 reporter assay: PD-L1-dependent CD28 costimulation). Conditions: Table E22; Jurkat/IL2 + CHO/OKT3/PD-L1; CD80 Conc 5.0 nM.
Assay type: cell-based
Parameters: host or cells: Jurkat cells expressing an IL-2-luciferase reporter
Summary of the method: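 Readout is relative luminescence from lysed cocultures: test protein given 15 min at room temperature to Jurkat cells before adding CHO artificial APCs displaying OKT3 alone or OKT3 plus PD-L1, then 5 h at 37 °C, 5% CO2.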

Row | Relative Luciferase Units (RLU), CD80 Conc 5.0 nM [RLU] | Molecule
43 | 766 | B19
